Experimental data published in patent publication US20140056908.

Target: T1, malaria vaccine candidate protein Pfs48 with PR-1a signal peptide, 6xHis tag and KDEL
T1 chain: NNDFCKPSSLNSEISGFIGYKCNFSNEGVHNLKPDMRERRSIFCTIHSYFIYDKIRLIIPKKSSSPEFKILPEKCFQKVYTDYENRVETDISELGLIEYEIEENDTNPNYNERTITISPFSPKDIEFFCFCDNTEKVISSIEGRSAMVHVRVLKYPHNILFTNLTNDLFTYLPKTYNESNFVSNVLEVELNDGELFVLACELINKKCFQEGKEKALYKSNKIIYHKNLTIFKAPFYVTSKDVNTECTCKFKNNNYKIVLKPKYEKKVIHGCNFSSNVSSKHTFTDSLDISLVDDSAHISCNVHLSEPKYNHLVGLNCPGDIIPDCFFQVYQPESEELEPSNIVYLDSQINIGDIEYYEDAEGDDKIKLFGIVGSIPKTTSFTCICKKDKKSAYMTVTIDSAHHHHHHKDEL

B1: endoglycosidase F from Elizabethkingia meningoseptica (PNGaseF) with PR-1a signal peptide, FLAG tag and KDEL (protein)
chain: APADNTVNIKTFDKVKNAFGDGLSQSAEGTFTFPADVTTVKTIKMFIKNECPNKTCDEWDRYANVYVKNKTTGEWYEIGRFITPYWVGTEKLPRGLEIDVTDFKSLLSGNTELKIYTETCLAKGREYSVDFDIVYGTPDYKYSAVVPVIQYNKSSIDGVPYGKAHTLGLKKNIQLPTNTEKAYLRTTISGWGHAKPYDAGSRGCAEWCFRTHTIAINNANTFQHQLGALGCSANPINNQSPGNWAPDRAGWCPGMAVPTRIDVLNNSLTGSTFSYEYKFQSWTNNGTNGDAFYAISSFVIAKSNTPISAPVVTNDYKDDDDKDEL
electrophoretic mobility of Pfs48 on Western blot (deglycosylation on co-expression in planta): the electrophoretic mobility of the glycosylated Pfs48 (control, which was expressed w/o PNGaseF) was different (less mobility) compared to the non-glycosylated form of Pfs48 that was co-expressed with PNGaseF
